{"source": "paper PMC2675579", "about": "“Structure of N-acetylglucosamine-1-phosphate uridyltransferase (GlmU) from Mycobacterium tuberculosis in a cubic space group” (Acta Crystallographica Section F: Structural Biology and …, 2009)", "target": "the molecule itself", "test": "SEC; 26/60 Superdex200 High Load gel-filtration column, 20 mM HEPES pH 7.5, 150 mM NaCl, 1 mM DTT"}
{"protein": "N-acetylglucosamine-1-phosphate uridyltransferase (GlmU) from Mycobacterium tuberculosis (enzyme, GlmU, Mycobacterium tuberculosis, gene Rv1018c (glmU); model built for residues 1-472; also called Rv1018c gene product; M. tuberculosis GlmU) MTFPGDTAVLVLAAGPGTRMRSDTPKVLHTLAGRSMLSHVLHAIAKLAPQRLIVVLGHDHQRIAPLVGELADTLGRTIDVALQDRPLGTGHAVLCGLSALPDDYAGNVVVTSGDTPLLDADTLADLIATHRAVSAAVTVLTTTLDDPFGYGRILRTQDHEVMAIVEQTDATPSQREIREVNAGVYAFDIAALRSALSRLSSNNAQQELYLTDVIAILRSDGQTVHASHVDDSALVAGVNNRVQLAELASELNRRVVAAHQLAGVTVVDPATTWIDVDVTIGRDTVIHPGTQLLGRTQIGGRCVVGPDTTLTDVAVGDGASVVRTHGSSSSIGDGAAVGPFTYLRPGTALGADGKLGAFVEVKNSTIGTGTKVPHLTYVGDADIGEYSNIGASSVFVNYDGTSKRRTTVGSHVRTGSDTMFVAPVTIGDGAYTGAGTVVREDVPPGALAVSAGPQRNIENWVQRKRPGSPAAQASKRASEMACQQPTQPPDADQTP", "values": [{"measurement": "stoichiometry N", "value": 3}]}
